{
  "source": "IntAct's records for PubMed 22807449",
  "parents": {"B1": {"name": "Natural cytotoxicity triggering receptor 3 (Homo sapiens), O14931 (parent)", "chain": "MAWMLLLILIMVHPGSCALWVSQPPEIRTLEGSSAFLPCSFNASQGRLAIGSVTWFRDEVVPGKEVRNGTPEFRGRLAPLASSRFLHDHQAELHIRDVRGHDASIYVCRVEVLGLGVGTGNGTRLVVEKEHPQLGAGTVLLLRAGFYAVSFLSVAVGSTVYYQGKCLTWKGPRRQLPAVVPAPLPPPCGSSAHLLPPVPGG"}, "B2": {"name": "Natural cytotoxicity triggering receptor 3 (Homo sapiens), O14931 (parent)", "chain": "B1 chain", "partner": "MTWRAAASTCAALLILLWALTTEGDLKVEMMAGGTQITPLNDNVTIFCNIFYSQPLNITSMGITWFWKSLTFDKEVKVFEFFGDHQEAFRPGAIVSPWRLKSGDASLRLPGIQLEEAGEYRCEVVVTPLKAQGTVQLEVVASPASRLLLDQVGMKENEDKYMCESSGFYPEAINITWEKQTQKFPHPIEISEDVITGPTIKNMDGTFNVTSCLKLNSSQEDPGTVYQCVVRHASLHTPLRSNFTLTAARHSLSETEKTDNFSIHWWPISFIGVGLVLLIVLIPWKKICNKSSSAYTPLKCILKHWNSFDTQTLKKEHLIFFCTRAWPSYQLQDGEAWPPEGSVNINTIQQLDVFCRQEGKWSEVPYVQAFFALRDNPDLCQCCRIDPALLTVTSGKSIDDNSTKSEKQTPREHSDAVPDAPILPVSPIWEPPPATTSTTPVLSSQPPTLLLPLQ"}},
  "data": [
    {"variants_of": "B1", "conditions": "with bag6_human BAG6, P46379", "values": [
      {"variant": "MAWMLLLILIMVHPGSCALWVSQPPEIRTLEGSSAFLPCSFQASQGRLAIGSVTWFRDEVVPGKEVRNGTPEFRGRLAPLASSRFLHDHQAELHIRDVRGHDASIYVCRVEVLGLGVGTGQGTRLVVEKEHPQLGAGTVLLLRAGFYAVSFLSVAVGSTVYYQGKCLTWKGPRRQLPAVVPAPLPPPCGSSAHLLPPVPGG", "note": "[N42Q;N121Q]", "effect of a mutation on the interaction": "with no effect"},
      {"variant": "MAWMLLLILIMVHPGSCALWVSQPPEIRTLEGSSAFLPCSFQASQGRLAIGSVTWFRDEVVPGKEVRQGTPEFRGRLAPLASSRFLHDHQAELHIRDVRGHDASIYVCRVEVLGLGVGTGNGTRLVVEKEHPQLGAGTVLLLRAGFYAVSFLSVAVGSTVYYQGKCLTWKGPRRQLPAVVPAPLPPPCGSSAHLLPPVPGG", "note": "[N42Q;N68Q]", "effect of a mutation on the interaction": "with no effect"},
      {"variant": "MAWMLLLILIMVHPGSCALWVSQPPEIRTLEGSSAFLPCSFQASQGRLAIGSVTWFRDEVVPGKEVRNGTPEFRGRLAPLASSRFLHDHQAELHIRDVRGHDASIYVCRVEVLGLGVGTGNGTRLVVEKEHPQLGAGTVLLLRAGFYAVSFLSVAVGSTVYYQGKCLTWKGPRRQLPAVVPAPLPPPCGSSAHLLPPVPGG", "note": "[N42Q]", "effect of a mutation on the interaction": "with no effect"},
      {"variant": "MAWMLLLILIMVHPGSCALWVSQPPEIRTLEGSSAFLPCSFNASQGRLAIGSVTWFRDEVVPGKEVRQGTPEFRGRLAPLASSRFLHDHQAELHIRDVRGHDASIYVCRVEVLGLGVGTGQGTRLVVEKEHPQLGAGTVLLLRAGFYAVSFLSVAVGSTVYYQGKCLTWKGPRRQLPAVVPAPLPPPCGSSAHLLPPVPGG", "note": "[N68Q;N121Q]", "effect of a mutation on the interaction": "with no effect"},
      {"variant": "MAWMLLLILIMVHPGSCALWVSQPPEIRTLEGSSAFLPCSFNASQGRLAIGSVTWFRDEVVPGKEVRQGTPEFRGRLAPLASSRFLHDHQAELHIRDVRGHDASIYVCRVEVLGLGVGTGNGTRLVVEKEHPQLGAGTVLLLRAGFYAVSFLSVAVGSTVYYQGKCLTWKGPRRQLPAVVPAPLPPPCGSSAHLLPPVPGG", "note": "[N68Q]", "effect of a mutation on the interaction": "with no effect"},
      {"variant": "MAWMLLLILIMVHPGSCALWVSQPPEIRTLEGSSAFLPCSFQASQGRLAIGSVTWFRDEVVPGKEVRQGTPEFRGRLAPLASSRFLHDHQAELHIRDVRGHDASIYVCRVEVLGLGVGTGQGTRLVVEKEHPQLGAGTVLLLRAGFYAVSFLSVAVGSTVYYQGKCLTWKGPRRQLPAVVPAPLPPPCGSSAHLLPPVPGG", "note": "[N42Q;N68Q;N121Q]", "effect of a mutation on the interaction": "with no effect"},
      {"variant": "MAWMLLLILIMVHPGSCALWVSQPPEIRTLEGSSAFLPCSFNASQGRLAIGSVTWFRDEVVPGKEVRNGTPEFRGRLAPLASSRFLHDHQAELHIRDVRGHDASIYVCRVEVLGLGVGTGQGTRLVVEKEHPQLGAGTVLLLRAGFYAVSFLSVAVGSTVYYQGKCLTWKGPRRQLPAVVPAPLPPPCGSSAHLLPPVPGG", "note": "[N121Q]", "effect of a mutation on the interaction": "with no effect"}
    ]},
    {"variants_of": "B2", "conditions": "with nr3l1_human NCR3LG1, Q68D85", "values": [
      {"variant": "MAWMLLLILIMVHPGSCALWVSQPPEIRTLEGSSAFLPCSFQASQGRLAIGSVTWFRDEVVPGKEVRQGTPEFRGRLAPLASSRFLHDHQAELHIRDVRGHDASIYVCRVEVLGLGVGTGQGTRLVVEKEHPQLGAGTVLLLRAGFYAVSFLSVAVGSTVYYQGKCLTWKGPRRQLPAVVPAPLPPPCGSSAHLLPPVPGG", "note": "[N42Q;N68Q;N121Q]", "effect of a mutation on the interaction": "disrupting interaction strength"},
      {"variant": "MAWMLLLILIMVHPGSCALWVSQPPEIRTLEGSSAFLPCSFQASQGRLAIGSVTWFRDEVVPGKEVRNGTPEFRGRLAPLASSRFLHDHQAELHIRDVRGHDASIYVCRVEVLGLGVGTGNGTRLVVEKEHPQLGAGTVLLLRAGFYAVSFLSVAVGSTVYYQGKCLTWKGPRRQLPAVVPAPLPPPCGSSAHLLPPVPGG", "note": "[N42Q]", "effect of a mutation on the interaction": "disrupting interaction strength"},
      {"variant": "MAWMLLLILIMVHPGSCALWVSQPPEIRTLEGSSAFLPCSFQASQGRLAIGSVTWFRDEVVPGKEVRNGTPEFRGRLAPLASSRFLHDHQAELHIRDVRGHDASIYVCRVEVLGLGVGTGQGTRLVVEKEHPQLGAGTVLLLRAGFYAVSFLSVAVGSTVYYQGKCLTWKGPRRQLPAVVPAPLPPPCGSSAHLLPPVPGG", "note": "[N42Q;N121Q]", "effect of a mutation on the interaction": "disrupting interaction strength"},
      {"variant": "MAWMLLLILIMVHPGSCALWVSQPPEIRTLEGSSAFLPCSFNASQGRLAIGSVTWFRDEVVPGKEVRNGTPEFRGRLAPLASSRFLHDHQAELHIRDVRGHDASIYVCRVEVLGLGVGTGQGTRLVVEKEHPQLGAGTVLLLRAGFYAVSFLSVAVGSTVYYQGKCLTWKGPRRQLPAVVPAPLPPPCGSSAHLLPPVPGG", "note": "[N121Q]", "effect of a mutation on the interaction": "with no effect"},
      {"variant": "MAWMLLLILIMVHPGSCALWVSQPPEIRTLEGSSAFLPCSFQASQGRLAIGSVTWFRDEVVPGKEVRQGTPEFRGRLAPLASSRFLHDHQAELHIRDVRGHDASIYVCRVEVLGLGVGTGNGTRLVVEKEHPQLGAGTVLLLRAGFYAVSFLSVAVGSTVYYQGKCLTWKGPRRQLPAVVPAPLPPPCGSSAHLLPPVPGG", "note": "[N42Q;N68Q]", "effect of a mutation on the interaction": "disrupting interaction strength"},
      {"variant": "MAWMLLLILIMVHPGSCALWVSQPPEIRTLEGSSAFLPCSFNASQGRLAIGSVTWFRDEVVPGKEVRQGTPEFRGRLAPLASSRFLHDHQAELHIRDVRGHDASIYVCRVEVLGLGVGTGNGTRLVVEKEHPQLGAGTVLLLRAGFYAVSFLSVAVGSTVYYQGKCLTWKGPRRQLPAVVPAPLPPPCGSSAHLLPPVPGG", "note": "[N68Q]", "effect of a mutation on the interaction": "decreasing interaction strength"},
      {"variant": "MAWMLLLILIMVHPGSCALWVSQPPEIRTLEGSSAFLPCSFNASQGRLAIGSVTWFRDEVVPGKEVRQGTPEFRGRLAPLASSRFLHDHQAELHIRDVRGHDASIYVCRVEVLGLGVGTGQGTRLVVEKEHPQLGAGTVLLLRAGFYAVSFLSVAVGSTVYYQGKCLTWKGPRRQLPAVVPAPLPPPCGSSAHLLPPVPGG", "note": "[N68Q;N121Q]", "effect of a mutation on the interaction": "decreasing interaction strength"}
    ]}
  ]
}
